± gives the standard deviation of the averaged measurements.
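Note: PSI is a weighted mean of sequencing reads over stability bins, variants kept only with over 10 reads, mCherry proximal and sfGFP distal, peptide attached via GGGS linker.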

For the data set, the system named is Saccharomyces cerevisiae. Nature of the data set: protein stability index of tFT-peptide fusion (C-terminal peptide) (PSI (0-1 scale)); higher = more stable (slower turnover). As to conditions: genetic background: wild type; temperature: 30 C.
Turning to LLHFSSPPLLPV, the protein stability index was found to be 0.634 ± 0.055.
Sequence LLHVPIVFPRLI yielded a protein stability index of 0.62 ± 0.043.
Then LLHWGRWSRGRR, with 0.694 ± 0.071; and LLIHLKDFYCFV, with 0.855 ± 0.019; and LLLFPSSFIFFY, with 0.629 ± 0.055.
To LLLGSFFNKPTT belongs 0.678 ± 0.035; to LLLLFWSGSCGC, 0.648 ± 0.013.
To LLLPIIPRKLDL belongs 0.673 ± 0.022; to LLLPPLPPLSLS, 0.7135 ± 0.0058.
Regarding LLLPPLSSSPPP, the protein stability index was determined as 0.7111 ± 0.0032.
Then LLLSPAFFSCFL, with 0.638 ± 0.095.
To LLMPRTKEEYDN belongs 0.601 ± 0.24; to LLNLQEEADLPS, 0.724 ± 0.035; to LLPALPLPLSLT, 0.64 ± 0.013.
To LLPLLYKWLGLR belongs 0.681 ± 0.025; to LLPLPPLLRLPL, 0.5803 ± 0.001; to LLPLPPPPLFLP, 0.705 ± 0.011.
As for LLPPFPPSSPAF, the protein stability index turned out to be 0.708 ± 0.036.
Then LLPPLPLSPSAP, with 0.685 ± 0.096; and LLPPPPPPTLYP, with 0.699 ± 0.016.
To LLPPPPSPPTPS belongs 0.686 ± 0.035.
Then LLPSPSPASSPS, with 0.74 ± 0.1; and LLPSSPRTFPLL, with 0.6731 ± 0.0008; and LLPVFFPCFPLP, with 0.696 ± 0.069.
Take LLRFVGVRVRGA: the protein stability index amounted to 0.646 ± 0.094.
Then LLRLMSPTPFTP, with 0.703 ± 0.037; and LLRLPPPSPRYH, with 0.782 ± 0.019; and LLRPLRRLDVSW, with 0.632 ± 0.0065.
To LLRPPARPPHPR belongs 0.746 ± 0.008; to LLRVYNQNGERN, 0.734 ± 0.044; to LLRWEPNYTENL, 0.796 ± 0.028.
For LLRYAPSALPLP, the protein stability index worked out at 0.6683 ± 0.0031.
Then LLSAPFRSFFTL, with 0.5548 ± 0.0046; and LLSAVVDHTHLQ, with 0.664 ± 0.07.
In the case of LLSCVRSHPDAP, the protein stability index is 0.702 ± 0.073.
Take LLSLATPHPSAL: the protein stability index was determined as 0.714 ± 0.045.
To LLSLMCYCWFGV belongs 0.5088 ± 0.0011; to LLSPDAALGRLF, 0.692 ± 0.025.
For LLSPFLPPPLFV, the protein stability index worked out at 0.563 ± 0.019.
Then LLSPPPTPFPLP, with 0.666 ± 0.061; and LLSRCAGLMWSF, with 0.679 ± 0.0098; and LLSRQEWMTGRS, with 0.673 ± 0.031.
To LLTWENWVVPRL belongs 0.738 ± 0.053; to LLVLFRWSGIPG, 0.552 ± 0.034.
Then LLVLGHVCAANF, with 0.601 ± 0.0094.
LLVMRGMRGCGT had a protein stability index of 0.681 ± 0.056.
Then LLVMRRHRFLRL, with 0.624 ± 0.051.
To LLVNLNINYFKR belongs 0.689 ± 0.018; to LLWCPLRSIGLS, 0.696 ± 0.044.
Then LLWPSPAISLPT, with 0.722 ± 0.021; and LMAGPRLCSPLR, with 0.634 ± 0.033; and LMCGPARSPLTT, with 0.6701 ± 0.00098.
LMFPLPLRSFPF came in with a protein stability index of 0.6931 ± 0.0014.
To LNHQSSVHLNTP belongs 0.732 ± 0.034; to LNTTKTFCSPCL, 0.692 ± 0.081.
Then LPACVVVRYCRF, with 0.637 ± 0.12; and LPAPLHPPPSQP, with 0.638 ± 0.014; and LPAPPAPLTFPG, with 0.687 ± 0.021.
Then LPASLPPPPPPY, with 0.756 ± 0.058.
With LPCGPRGLTRPP, the protein stability index was 0.661 ± 0.0091.
To LPDSYAVVPPTS belongs 0.642 ± 0.068; to LPDVFLSSFFCL, 0.709 ± 0.027.
Then LPFCLPAPLPPP, with 0.708 ± 0.04; and LPFFFPRLFSPP, with 0.691 ± 0.061.

Values taken from the supplement of paper PMC10724198.
